In paper PMC3335848, “Characterization of Multi-Functional Properties and Conformational Analysis of MutS2 from Thermotoga maritima MSB8” (PLoS ONE, 2012):

Experiments:
[1] = molecular target: the molecule itself; experiment: AUC; sedimentation velocity, 20°C, 40000 rpm, 24 h, absorbance at 280 nm, C(s) method
TmMutS2 [2] = molecular target: T1, TmMutS2 (Thermotoga maritima MSB8, UniProt Q9X105 1-757); experiment: EMSA; no ATP; 0-2 uM protein; strongest binding among the DNAs; EMSA: 25 mM Hepes-NaOH pH 7.5, 200 mM NaCl, 0.5 mM EDTA, 37 C, 1 h; DNA 1 uM, TmMutS2 0-2 uM, +/- 1 mM ATP; details: protein: recombinant; tags: His-tag removed with TEV protease (pET-28aTEV); chain copies: 2; label: 5'-32P (EMSA); four-way junction of 4 strands
T1 sequence: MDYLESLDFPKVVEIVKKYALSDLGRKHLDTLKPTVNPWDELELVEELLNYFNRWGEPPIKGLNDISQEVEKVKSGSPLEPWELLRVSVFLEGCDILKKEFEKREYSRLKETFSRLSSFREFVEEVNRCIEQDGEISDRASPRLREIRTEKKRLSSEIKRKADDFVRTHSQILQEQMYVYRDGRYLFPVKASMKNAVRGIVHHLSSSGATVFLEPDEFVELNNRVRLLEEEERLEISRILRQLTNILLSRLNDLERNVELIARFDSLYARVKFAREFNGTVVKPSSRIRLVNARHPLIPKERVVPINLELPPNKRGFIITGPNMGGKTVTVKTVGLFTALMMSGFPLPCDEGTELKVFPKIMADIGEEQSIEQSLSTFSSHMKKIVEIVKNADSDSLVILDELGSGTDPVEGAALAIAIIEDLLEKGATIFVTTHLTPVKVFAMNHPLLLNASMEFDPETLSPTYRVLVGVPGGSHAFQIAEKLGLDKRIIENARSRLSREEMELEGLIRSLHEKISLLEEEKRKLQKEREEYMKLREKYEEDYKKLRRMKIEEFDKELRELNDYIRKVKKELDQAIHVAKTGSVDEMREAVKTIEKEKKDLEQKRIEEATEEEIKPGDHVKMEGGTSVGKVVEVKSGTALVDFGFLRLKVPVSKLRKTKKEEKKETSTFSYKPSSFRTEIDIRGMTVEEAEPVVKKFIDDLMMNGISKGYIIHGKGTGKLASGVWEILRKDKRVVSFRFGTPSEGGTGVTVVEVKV

TmMutS2 [3] = molecular target: T1, TmMutS2; experiment: EMSA; no ATP; stronger than linear and overhang; EMSA: 25 mM Hepes-NaOH pH 7.5, 200 mM NaCl, 0.5 mM EDTA, 37 C, 1 h; DNA 1 uM, TmMutS2 0-2 uM, +/- 1 mM ATP; details: protein: recombinant; tags: His-tag removed with TEV protease (pET-28aTEV); chain copies: 2; label: 5'-32P; fork; S19[1-37] paired with 3' part of S16, both other arms unpaired

B1: Thermotoga maritima MutS2 (enzyme, Thermotoga maritima MSB8, UniProt Q9X105 1-757, looked up)
chain: MDYLESLDFPKVVEIVKKYALSDLGRKHLDTLKPTVNPWDELELVEELLNYFNRWGEPPIKGLNDISQEVEKVKSGSPLEPWELLRVSVFLEGCDILKKEFEKREYSRLKETFSRLSSFREFVEEVNRCIEQDGEISDRASPRLREIRTEKKRLSSEIKRKADDFVRTHSQILQEQMYVYRDGRYLFPVKASMKNAVRGIVHHLSSSGATVFLEPDEFVELNNRVRLLEEEERLEISRILRQLTNILLSRLNDLERNVELIARFDSLYARVKFAREFNGTVVKPSSRIRLVNARHPLIPKERVVPINLELPPNKRGFIITGPNMGGKTVTVKTVGLFTALMMSGFPLPCDEGTELKVFPKIMADIGEEQSIEQSLSTFSSHMKKIVEIVKNADSDSLVILDELGSGTDPVEGAALAIAIIEDLLEKGATIFVTTHLTPVKVFAMNHPLLLNASMEFDPETLSPTYRVLVGVPGGSHAFQIAEKLGLDKRIIENARSRLSREEMELEGLIRSLHEKISLLEEEKRKLQKEREEYMKLREKYEEDYKKLRRMKIEEFDKELRELNDYIRKVKKELDQAIHVAKTGSVDEMREAVKTIEKEKKDLEQKRIEEATEEEIKPGDHVKMEGGTSVGKVVEVKSGTALVDFGFLRLKVPVSKLRKTKKEEKKETSTFSYKPSSFRTEIDIRGMTVEEAEPVVKKFIDDLMMNGISKGYIIHGKGTGKLASGVWEILRKDKRVVSFRFGTPSEGGTGVTVVEVKV
notes: MutS2 of Thermotoga maritima MSB8, gene amplified from genomic DNA; 89 kDa; residue numbers run to 757; Vector pET-28aTEV; also called TmMutS2; apo-TmMutS2; source: E. coli BL21 (DE3), purified (heat step at 65°C, Ni-NTA, TEV cleavage, Heparin Hitrap HP, Superdex 200 HR)
stoichiometry N [1]: 2

B2: Four-way junction (FWJ, DNA 3) (structured_DNA)
DNA 1: GACGCTGCCGAATCCTACCAGTGCCTTGCTAGGACATCTTTGCCCACCTGCAGGTCACCC
DNA 2: TGGGTGAACCTGCAGGTGGGCAAAGATGTCCTAGCAATGTAATCGTCAAGCTTTATGCCGTT
DNA 3: ATCGATAGTCGGATCCTCTAGACAGCATGTCCTAGCAAGGCACTGGTAGAATTCGGCAGCGT
DNA 4: CAACGGCATAAAGCTTGACGATTACATTGCTAGGACATGCTGTCTAGAGGATCCGACTATCGA
binding result (TmMutS2 [2]): binds

B3: Flayed (DNA 4, fork) (structured_DNA)
DNA 1: AACGGCATAAAGCTTGACGATTACATTGCTAGGACATGCTGTCTAGAGGATCCGACTATCGA
DNA 2: TGGGTGAACCTGCAGGTGGGCAAAGATGTCCTAGCAATGTAATCGTCAAGCTTTATGCCGTT
binding result (TmMutS2 [3]): binds
